Test results reported in patent US20250074980A1 (BRIGHAM AND WOMEN S HOSPITAL, published 2025).

T1: CEACAM3 on transfected HeLa cells (human, UniProt P40198 35-252)
T1 construct: whole, on cells; also called HeLa-CEACAM3; HeLa C3
T1 sequence (looked up): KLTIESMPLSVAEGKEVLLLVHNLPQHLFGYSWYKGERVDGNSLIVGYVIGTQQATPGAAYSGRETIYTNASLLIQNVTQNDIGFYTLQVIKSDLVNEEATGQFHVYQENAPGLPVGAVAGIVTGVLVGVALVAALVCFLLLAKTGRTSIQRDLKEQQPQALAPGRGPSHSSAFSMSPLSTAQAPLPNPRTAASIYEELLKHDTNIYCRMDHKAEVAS

T2: His-tagged CEACAM1 (human, UniProt P13688 35-428)
T2 construct: 45 kDa SPR analyte; also called CEACAM1-HIS; CEACAM1 analyte
T2 sequence: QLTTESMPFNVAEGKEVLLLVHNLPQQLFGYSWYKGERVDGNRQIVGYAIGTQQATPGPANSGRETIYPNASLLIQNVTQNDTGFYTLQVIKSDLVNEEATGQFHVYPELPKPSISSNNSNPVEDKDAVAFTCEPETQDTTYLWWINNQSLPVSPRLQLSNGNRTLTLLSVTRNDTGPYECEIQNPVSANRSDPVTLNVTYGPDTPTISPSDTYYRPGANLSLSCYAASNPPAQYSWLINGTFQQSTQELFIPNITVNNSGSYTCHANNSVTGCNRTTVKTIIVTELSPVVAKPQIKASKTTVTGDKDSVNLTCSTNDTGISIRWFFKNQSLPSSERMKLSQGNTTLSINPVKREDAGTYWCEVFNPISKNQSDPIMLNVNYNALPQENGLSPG


Experiments:
[1] = molecular target: T1, CEACAM3 on transfected HeLa cells; experiment: flow cytometry titration, HeLa-CEACAM3 transfectants, anti-human IgG4 FITC
Description: FIGS. 31A and 31B show flow cytometry analyses of stable HeLa CEACAM1 (HeLa C1) transfectant, stable HeLa CEACAM3 transfectant (HeLa C3), stable HeLa CEACAM5 transfectant (HeLa C5), stable HeLa CEACAM6 transfectant (HeLa C6), and stable HeLa CEACAM8 transfectant (HeLa C8). FIG. 31A: 5×10\hat{ }4 indicated HeLa transfectants were washed with staining buffer and CP08H03/Vκ8 S29A (labeled “CP08”, left) or CEACAM1 antibody CM-24 was incubated at room temperature for 30 min, washed twice with staining buffer, and stained for anti-human IgG4 Fluorescein isothiocyanate (FITC) conjugated secondary antibody at room temperature for 20 min. Fluorescence intensities were determined by flow cytometry. Live cells were determined by 4′,6-diamidino-2-phenylindole (DAPI) staining as shown on the y-axis. Staining with the respective CEACAM1 antibody is shown on the x-axis. […]
The cervical adenocarcinoma cell line HeLa (ATCC No CCL-2) as well as transfected cell lines HeLaCEACAM1, HeLaCEACAM3, HeLaCEACAM5, HeLaCEACAM6 and HeLaCEACAM8 used for flow cytometry experiments were cultured at 37° C., 5.0% CO₂ in Dulbecco's modified Eagle's medium supplemented with 10% fetal bovine serum, penicillin (100 U/ml) and dihydrostreptomycin (100 μg/ml). […] Data were acquired with a Cytoflex flow cytometer (Invitrogen) and analyzed with FlowJo software (TreeStar, V7.6.5 for Windows).

His-tagged CEACAM1 [2] = molecular target: T2, His-tagged CEACAM1; experiment: SPR multi-cycle, IgG captured
Description: As an alternative approach to assess the binding of the 36 antibody combinations and the three control antibodies to CEACAM1, a kinetic analysis was performed on a Biacore T200 (serial no. 1909913) running Biacore T200 Evaluation Software V2.0.1 (Uppsala, Sweden). All experiments were run at 25° C. with HBS-P+ running buffer (pH 7.4) (GE Healthcare, cat. no. BR100671). All kinetic experiments were performed using His-tagged CEACAM1 as the analyte. For all experiments, antibodies were immobilized onto a Series S Protein A sensor chip surface. For kinetic experiments, the amount of immobilized/captured ligand was limited to avoid mass transfer effects at the surface of the chip with the surface ideally having an analyte binding level (Rₘₐₓ) of 50-150 RUs. Using a MW of 45 kDa for the CEACAM1 analyte, 150 kDa for the antibody ligand (estimated value for IgG), 50 RU for Rmax and the stoichiometry (Sm) as 2 due to the ability of each antibody to bind 2 target molecules, a target response level of ˜75 RUs was set for capture of all the sample antibodies.
The signal from the reference channel Fc1 was subtracted from that of Fc2, Fc3 and Fc4 to correct for differences in non-specific binding to a reference surface, a global Rmax parameter was used in the 1-to-1 binding model. The relative Kp compared to […] was calculated by dividing the Kp of the humanized CEACAM antibody variants by that of the chimeric antibody VH0/Vκ0 on the same chip. A summary of the averaged relative Kp obtained for the 12 antibody combinations analyzed using multi cycle kinetics can be found in Table 5.

His-tagged CEACAM1 [3] = molecular target: T2, His-tagged CEACAM1; experiment: SPR single-cycle, IgG captured
How it was run: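 Biacore T200 single-cycle kinetics at 25° C in HBS-P+ (pH 7.4): antibodies (purified or HEK EBNA supernatant, 1 μg/ml) captured on Protein A to ~75 RU, His-tagged CEACAM1 analyte at 3.125–50 nM (5-point 2-fold) at 50 μl/min without regeneration. Reference channel Fc1 subtracted.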

binding result [1] | relative KD to VH0/Vκ0 (His-tagged CEACAM1 [2]) | Kd (His-tagged CEACAM1 [3]) | relative KD to VH0/Vκ0 (His-tagged CEACAM1 [3]) | Binder
no binding (tested: 100 ug/ml) |  |  |  | CP08H03/Vκ8 S29A (antibody, IgG4, V domains shown, IgG4 (S241P), kappa; also called CP08_H03/Parent VL; CP08_H03/Parental) VH: EVQLLESGGGLVQPGGSLRLSCAASGFIFSSHGMSWVRQAPGKGLEWVATISSGGTYTYYPDSVKGRFTISRDNSKNTLYLQMNSLKAEDTAMYYCARHDFDYFPYWFAHWGQGTLVTVSS VL: EIVLTQSPATLSLSPGERATLSCRANSAVSYMYWYQQKPGQAPRPWIYLTSNRATGVPARFSGSGSGTDYTLTISSLEPEDFAVYYCQQWSSNPPTFGQGTKLEIK
 | 1 | 42 nM | 1 | chimeric antibody VH0/Vκ0 (antibody, IgG4, V domains shown, IgG4 (S241P), kappa; also called VH0/Vκ0 (control); Chimeric VH0/Vκ0) VH: EVQLVESGGDLVKPGGSLKLACAASGFIFSSHGMSWVRQTPDKRLEWVATISSGGTYTYYPDSVKGRFTISRDNDKNTLYLQMNSLKSEDTAMYYCARHDFDYDAAWFAYWGQGTLVTVSS VL: QIVLTQSPALMSASPGVKVTMTCSANSSVSYMYWYRQKPRSSPKPWIYLTSNLASGVPARFSGSGSGTSYSLTISSMEAEDAATYYCQQWSSNPPTFGSGTKLEIK
